Tests used:
Test in all cases: cell-based or functional assay
[1] = molecular target: ALK1 / BMPRII receptor pair (BMPR Type I receptor ALK1 and BMPR Type II receptor BMPRII) on cells (UniProt P37023 22-503; Q13873 27-1038, limits assumed)
[2] = molecular target: T1, IL-18 receptor (IL-18Rα and IL-18Rβ) on HEK-Blue IL-18 cells (UniProt Q13478 19-541; O95256 20-599, limits assumed)
T1 sequence (looked up) 1: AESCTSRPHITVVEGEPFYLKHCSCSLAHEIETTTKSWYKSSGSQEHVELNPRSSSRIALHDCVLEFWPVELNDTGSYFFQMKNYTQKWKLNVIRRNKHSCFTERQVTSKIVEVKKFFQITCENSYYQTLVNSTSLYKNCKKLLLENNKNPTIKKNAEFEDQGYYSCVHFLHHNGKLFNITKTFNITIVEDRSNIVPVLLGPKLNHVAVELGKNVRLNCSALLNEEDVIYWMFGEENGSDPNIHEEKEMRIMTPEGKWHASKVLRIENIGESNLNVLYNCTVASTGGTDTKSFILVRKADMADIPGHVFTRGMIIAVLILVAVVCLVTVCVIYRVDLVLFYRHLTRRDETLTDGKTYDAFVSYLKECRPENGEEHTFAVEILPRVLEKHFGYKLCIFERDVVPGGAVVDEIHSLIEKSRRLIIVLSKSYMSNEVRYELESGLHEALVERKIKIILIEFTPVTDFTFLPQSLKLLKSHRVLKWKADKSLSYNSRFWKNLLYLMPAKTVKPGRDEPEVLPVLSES
T1 sequence (looked up) 2: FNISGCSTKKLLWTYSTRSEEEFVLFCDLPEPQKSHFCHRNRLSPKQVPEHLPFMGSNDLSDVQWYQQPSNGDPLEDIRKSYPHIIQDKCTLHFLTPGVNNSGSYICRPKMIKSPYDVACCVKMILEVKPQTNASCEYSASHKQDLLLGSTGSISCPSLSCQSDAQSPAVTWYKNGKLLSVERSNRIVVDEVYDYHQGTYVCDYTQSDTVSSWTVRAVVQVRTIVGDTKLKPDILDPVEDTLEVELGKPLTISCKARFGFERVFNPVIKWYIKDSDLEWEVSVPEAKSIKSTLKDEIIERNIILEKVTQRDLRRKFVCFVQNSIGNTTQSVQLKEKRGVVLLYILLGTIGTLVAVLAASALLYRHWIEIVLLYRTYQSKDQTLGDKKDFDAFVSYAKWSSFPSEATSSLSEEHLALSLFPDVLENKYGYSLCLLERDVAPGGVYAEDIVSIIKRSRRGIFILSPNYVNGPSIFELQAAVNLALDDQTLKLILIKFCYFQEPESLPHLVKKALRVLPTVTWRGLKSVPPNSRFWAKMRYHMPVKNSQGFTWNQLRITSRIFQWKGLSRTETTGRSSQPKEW

[3] = molecular target: T1, IL-18 receptor (IL-18Rα and IL-18Rβ) on …; remark: listed apart in the source

Sequence of ALK1 / BMPRII receptor pair (BMPR Type I receptor ALK1 and BMPR Type II receptor BMPRII) on cells (P37023 22-503 limits assumed, chain 1 of 2): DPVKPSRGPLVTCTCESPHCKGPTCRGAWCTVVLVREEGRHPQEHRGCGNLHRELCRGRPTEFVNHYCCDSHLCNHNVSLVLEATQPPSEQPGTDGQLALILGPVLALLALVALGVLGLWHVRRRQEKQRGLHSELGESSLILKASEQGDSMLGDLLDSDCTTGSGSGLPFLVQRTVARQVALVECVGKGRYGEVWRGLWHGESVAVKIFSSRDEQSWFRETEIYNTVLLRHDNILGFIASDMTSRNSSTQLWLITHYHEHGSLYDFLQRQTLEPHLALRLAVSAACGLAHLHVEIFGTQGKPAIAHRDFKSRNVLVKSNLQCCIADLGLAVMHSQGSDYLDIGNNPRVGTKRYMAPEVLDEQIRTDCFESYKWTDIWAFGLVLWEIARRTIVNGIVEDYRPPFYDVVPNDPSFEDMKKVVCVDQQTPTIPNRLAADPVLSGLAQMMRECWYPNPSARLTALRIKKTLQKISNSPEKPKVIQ
Sequence of ALK1 / BMPRII receptor pair (BMPR Type I receptor ALK1 and BMPR Type II receptor BMPRII) on cells (Q13873 27-1038 limits assumed, chain 2 of 2): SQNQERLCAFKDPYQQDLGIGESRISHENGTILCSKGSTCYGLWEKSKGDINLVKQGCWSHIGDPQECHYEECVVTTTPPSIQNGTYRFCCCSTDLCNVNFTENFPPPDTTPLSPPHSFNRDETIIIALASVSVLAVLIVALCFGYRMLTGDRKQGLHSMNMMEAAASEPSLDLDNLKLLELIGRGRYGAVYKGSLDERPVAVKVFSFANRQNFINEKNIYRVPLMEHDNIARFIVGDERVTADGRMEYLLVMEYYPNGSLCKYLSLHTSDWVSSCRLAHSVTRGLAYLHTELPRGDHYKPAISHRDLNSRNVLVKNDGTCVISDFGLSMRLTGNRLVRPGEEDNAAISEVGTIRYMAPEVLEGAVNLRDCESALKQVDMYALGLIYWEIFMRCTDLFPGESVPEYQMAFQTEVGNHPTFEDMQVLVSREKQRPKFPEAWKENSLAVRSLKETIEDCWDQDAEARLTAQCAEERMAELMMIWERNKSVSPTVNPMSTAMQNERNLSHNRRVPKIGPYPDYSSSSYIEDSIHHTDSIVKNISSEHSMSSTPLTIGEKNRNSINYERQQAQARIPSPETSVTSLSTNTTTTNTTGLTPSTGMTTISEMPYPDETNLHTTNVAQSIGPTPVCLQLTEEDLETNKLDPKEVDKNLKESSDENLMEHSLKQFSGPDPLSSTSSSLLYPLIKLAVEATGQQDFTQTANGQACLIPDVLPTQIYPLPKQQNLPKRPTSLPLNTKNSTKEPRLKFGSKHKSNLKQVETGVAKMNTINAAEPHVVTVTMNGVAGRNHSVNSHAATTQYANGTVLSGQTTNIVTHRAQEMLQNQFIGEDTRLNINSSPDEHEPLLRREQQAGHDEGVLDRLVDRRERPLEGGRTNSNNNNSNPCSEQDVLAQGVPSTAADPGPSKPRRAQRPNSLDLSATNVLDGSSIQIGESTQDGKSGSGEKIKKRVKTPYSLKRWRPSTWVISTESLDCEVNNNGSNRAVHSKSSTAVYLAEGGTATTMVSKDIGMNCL

B1: DGL1146 (bispecific antibody, human IgG1, lambda)
heavy: EVQLLESGGGLVQPGGSLRLSCAASGFTFSDYYMTWIRQAPGKGLEWVSSISGGSTYYADSRKGRFTISRDNSENTLYLQMNSLRAEDTAVYYCARDFGVAGWFGQYGMDVWGQGTLVTVSSPLAPEVQLLESGGGLVQPGGSLRLSCAASGFTFSSYAMSWVRQAPGKGLEWVANINQDGSEKNYVDSMRGRFTISRDNSKNTLYLQMNSLRAEDTAVYYCAREFDYWGQGTLVTVSSASTKGPSVFPLAPSSKSTSGGTAALGCLVKDYFPEPVTVSWNSGALTSGVHTFPAVLQSSGLYSLSSVVTVPSSSLGTQTYICNVNHKPSNTKVDKKVEPKSCDKTHTCPPCPAPEAAGAPSVFLFPPKPKDTLMISRTPEVTCVVVDVSHEDPEVKFNWYVDGVEVHNAKTKPREEQYNSTYRVVSVLTVLHQDWLNGKEYKCKVSNKALPAPIEKTISKAKGQPREPQVYTLPPSRDELTKNQVSLTCLVKGFYPSDIAVEWESNGQPENNYKTTPPVLDSDGSFFLYSKLTVDKSRWQQGNVFSCSVLHEALHSHYTQKSLSLSPG
light: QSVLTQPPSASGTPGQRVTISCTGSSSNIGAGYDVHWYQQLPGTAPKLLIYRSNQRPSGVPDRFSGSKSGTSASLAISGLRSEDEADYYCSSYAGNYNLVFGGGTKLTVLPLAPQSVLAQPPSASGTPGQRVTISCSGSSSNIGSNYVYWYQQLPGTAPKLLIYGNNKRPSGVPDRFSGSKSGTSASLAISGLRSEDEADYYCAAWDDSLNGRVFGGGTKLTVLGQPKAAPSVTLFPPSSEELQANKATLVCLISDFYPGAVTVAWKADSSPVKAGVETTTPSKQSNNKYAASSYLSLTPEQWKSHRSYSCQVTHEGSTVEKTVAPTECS
Agonist activity in DiscoverX assay, % Emax BMP9 [1]: 78 % Emax BMP9

B2: DGL093 (bispecific antibody, IgG1)
chain 1: QVQLVESGGGLVQAGGSLRLSCAASGRTFSKHAMGWFRQAPGKEREFVAAIDWSGGSTYYADSVKGRFTISRDNAKNTVYLQMDSLKPEDTAVYYCAADSYTDYAQLWLPELESEYDYWGQGTQVTVSSDKTHTCPPCPAPEAAGGPSVFLFPPKPKDTLMISRTPEVTCVVVDVSHEDPEVKFNWYVDGVEVHNAKTKPREEQYNSTYRVVSVLTVLHQDWLNGKEYKCKVSNKALPAPIEKTISKAKGQPREPQVCTLPPSRDELTKNQVSLSCAVKGFYPSDIAVEWESNGQPENNYKTTPPVLDSDGSFFLVSKLTVDKSRWQQGNVFSCSVMHEALHNHYTQKSLSLSPG
chain 2: not shown
HEK-Blue assay, % hu-IL-18 [2]: 65 % of human IL18 activity

B3: DGL209 (bispecific antibody)
chain 1: QVQLVESGGGLVQAGGSLRLSCAASGRTFSKHAMGWFRQAPGKEREFVAAIDWSGGSTYYADSVKGRFTISRDNAKNTVYLQMDSLKPEDTAVYYCAADSYTDYAQLWLPELESEYDYWGQGTLVTVSSPLAPCPPCPAPEAAGAPSVFLFPPKPKDTLMISRTPEVTCVVVDVSHEDPEVKFNWYVDGVEVHNAKTKPREEQYNSTYRVVSVLTVLHQDWLNGKEYKCKVSNKALPAPIEKTISKAKGQPREPQVCTLPPSRDELTKNQVSLSCAVKGFYPSDIAVEWESNGQPENNYKTTPPVLDSDGSFFLVSKLTVDKSRWQQGNVFSCSVMHEALHNHYTQKSLSLSPGWSHPQFEK
chain 2: QLQLVESGGGLVQAGGSLRLSCAASRSITFSHNVMGWYRQAPGKQRELVASIGSGGSTNYVDSVKGRATISRDNAKKTVYLQMNSLKPEDTAVYYCGVVVGVYRGSLGQGTLVTVSSPLAPCPPCPAPEAAGAPSVFLFPPKPKDTLMISRTPEVTCVVVDVSHEDPEVKFNWYVDGVEVHNAKTKPREEQYNSTYRVVSVLTVLHQDWLNGKEYKCKVSNKALPAPIEKTISKAKGQPREPQVYTLPPCRDELTKNQVSLWCLVKGFYPSDIAVEWESNGQPENNYKTTPPVLDSDGSFFLYSKLTVDKSRWQQGNVFSCSVMHEALHNHYTQKSLSLSPGEPEA
HEK-Blue assay, % human IL-18 [3]: 65 % of human IL18 activity
HEK-Blue assay, % hu-IL-18 [2]: 89 % of human IL18 activity

B4: DGL947 (bispecific antibody, human IgG1, lambda)
heavy: EVQLLESGGGLVQPGGSLRLSCAASGFTFSDYYMNWIRQAPGKGLEWVSSISGGSTYYADSVKGRFTISRDNSENTLYLQMNSLRAEDTAVYYCARDFGVAGWFGQFGMDVWGQGTLVTVSSPLAPEVQLLESGGGLVQPGGSLRLSCAASGFTFSSYWMSWVRQAPGKGLEWVANINQDGSEKYYVDSMRGRFTISRDNSKNTLYLQMNSLRAEDTAVYYCAREYDYWGQGTLVTVSSASTKGPSVFPLAPSSKSTSGGTAALGCLVKDYFPEPVTVSWNSGALTSGVHTFPAVLQSSGLYSLSSVVTVPSSSLGTQTYICNVNHKPSNTKVDKKVEPKSCDKTHTCPPCPAPEAAGAPSVFLFPPKPKDTLYITREPEVTCVVVDVSHEDPEVKFNWYVDGVEVHNAKTKPREEQYNSTYRVVSVLTVLHQDWLNGKEYKCKVSNKALPAPIEKTISKAKGQPREPQVYTLPPSRDELTKNQVSLTCLVKGFYPSDIAVEWESNGQPENNYKTTPPVLDSDGSFFLYSKLTVDKSRWQQGNVFSCSVMHEALHNHYTQKSLSLSPG
light: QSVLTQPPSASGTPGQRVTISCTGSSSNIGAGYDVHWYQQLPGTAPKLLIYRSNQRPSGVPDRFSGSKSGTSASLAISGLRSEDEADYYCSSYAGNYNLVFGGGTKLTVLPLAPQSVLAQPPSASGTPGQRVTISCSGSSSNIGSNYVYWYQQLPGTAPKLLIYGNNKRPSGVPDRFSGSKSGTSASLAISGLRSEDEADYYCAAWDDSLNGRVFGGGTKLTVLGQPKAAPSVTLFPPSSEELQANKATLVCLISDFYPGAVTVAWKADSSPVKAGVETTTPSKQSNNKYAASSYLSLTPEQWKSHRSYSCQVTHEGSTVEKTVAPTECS
Agonist activity in DiscoverX assay, % Emax BMP9 [1]: 47 % Emax BMP9

B5: DGL949 (bispecific antibody, human IgG1, lambda)
heavy: EVQLLESGGGLVQPGGSLRLSCAASGFTFSDYYMNWIRQAPGKGLEWVSSISGGSTYYADSVKGRFTISRDNSENTLYLQMNSLRAEDTAVYYCARDFGVAGWFGYYGMDVWGQGTLVTVSSPLAPEVQLLESGGGLVQPGGSLRLSCAASGFTFSSYWMSWVRQAPGKGLEWVANIKQDGSEKNYVDSMRGRFTISRDNSKNTLYLQMNSLRAEDTAVYYCAREFDFWGQGTLVTVSSASTKGPSVFPLAPSSKSTSGGTAALGCLVKDYFPEPVTVSWNSGALTSGVHTFPAVLQSSGLYSLSSVVTVPSSSLGTQTYICNVNHKPSNTKVDKKVEPKSCDKTHTCPPCPAPEAAGAPSVFLFPPKPKDTLYITREPEVTCVVVDVSHEDPEVKFNWYVDGVEVHNAKTKPREEQYNSTYRVVSVLTVLHQDWLNGKEYKCKVSNKALPAPIEKTISKAKGQPREPQVYTLPPSRDELTKNQVSLTCLVKGFYPSDIAVEWESNGQPENNYKTTPPVLDSDGSFFLYSKLTVDKSRWQQGNVFSCSVMHEALHNHYTQKSLSLSPG
light: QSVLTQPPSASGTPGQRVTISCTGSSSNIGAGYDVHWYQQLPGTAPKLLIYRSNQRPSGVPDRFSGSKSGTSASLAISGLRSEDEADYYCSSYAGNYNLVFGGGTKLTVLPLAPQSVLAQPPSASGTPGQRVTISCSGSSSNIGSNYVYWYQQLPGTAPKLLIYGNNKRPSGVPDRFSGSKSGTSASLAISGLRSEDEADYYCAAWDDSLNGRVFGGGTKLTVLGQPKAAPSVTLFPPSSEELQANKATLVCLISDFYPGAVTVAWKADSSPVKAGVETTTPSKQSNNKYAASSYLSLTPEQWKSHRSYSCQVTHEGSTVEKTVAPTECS
Agonist activity in DiscoverX assay, % Emax BMP9 [1]: 42 % Emax BMP9

B6: DGL207 (bispecific antibody)
chain 1: QVQLVESGGGLVQAGGSLRLSCAASGRTFSKHAMGWFRQAPGKEREFVAAIDWSGGSTYYADSVKGRFTISRDNAKNTVYLQMDSLKPEDTAVYYCAADSYTDYAQLWLPELESEYDYWGQGTLVTVSSCPPCPAPEAAGAPSVFLFPPKPKDTLMISRTPEVTCVVVDVSHEDPEVKFNWYVDGVEVHNAKTKPREEQYNSTYRVVSVLTVLHQDWLNGKEYKCKVSNKALPAPIEKTISKAKGQPREPQVCTLPPSRDELTKNQVSLSCAVKGFYPSDIAVEWESNGQPENNYKTTPPVLDSDGSFFLVSKLTVDKSRWQQGNVFSCSVMHEALHNHYTQKSLSLSPGWSHPQFEK
chain 2: QLQLVESGGGLVQAGGSLRLSCAASRSITFSHNVMGWYRQAPGKQRELVASIGSGGSTNYVDSVKGRATISRDNAKKTVYLQMNSLKPEDTAVYYCGVVVGVYRGSLGQGTLVTVSSCPPCPAPEAAGAPSVFLFPPKPKDTLMISRTPEVTCVVVDVSHEDPEVKFNWYVDGVEVHNAKTKPREEQYNSTYRVVSVLTVLHQDWLNGKEYKCKVSNKALPAPIEKTISKAKGQPREPQVYTLPPCRDELTKNQVSLWCLVKGFYPSDIAVEWESNGQPENNYKTTPPVLDSDGSFFLYSKLTVDKSRWQQGNVFSCSVMHEALHNHYTQKSLSLSPGEPEA
HEK-Blue assay, % human IL-18 [3]: 85 % of human IL18 activity
HEK-Blue assay, % hu-IL-18 [2]: 98 % of human IL18 activity
